Test results reported in paper PMC11569188 (2024).

Target: Grb2 SH2 domain (BAP-tagged) (UniProt P62993 60-152, biotin on the BAP tag (in vivo biotinylation))
Assay: FP

Chain of Grb2 SH2 domain (BAP-tagged) (P62993 60-152): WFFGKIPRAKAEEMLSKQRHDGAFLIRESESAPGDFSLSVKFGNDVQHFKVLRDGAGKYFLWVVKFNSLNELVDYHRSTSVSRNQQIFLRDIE

- IC50: 770 nM
B1: Affimer Grb2 A4 (designed binder)
chain: MASNSLEIEELARFAVDEHNKKENALLEFVRVVKAKEQHVLWENAGPTMYYLTLEAKDGGKKKLYEAKVWVKHTRYEYFVYNFKELQEFKPVGDAAAAHHHHHHHH
